Laboratory results taken from article PMC10092196 (Human Mutation, 2022).
Where a chain is given by its changes, count along the chain named. Names may count otherwise.

Tests used:
[1] = biological target: the molecule itself; assay: SEC
[2] = biological target: the molecule itself; assay: SEC with right-angle light scattering

B1: full-length wild-type human PUS3 protein (pseudouridine synthase 3) (enzyme, UniProt Q9BZE2 1-481, looked up)
chain: MAYNDTDRNQTEKLLKRVRELEQEVQRLKKEQAKNKEDSNIRENSAGAGKTKRAFDFSAHGRRHVALRIAYMGWGYQGFASQENTNNTIEEKLFEALTKTRLVESRQTSNYHRCGRTDKGVSAFGQVISLDLRSQFPRGRDSEDFNVKEEANAAAEEIRYTHILNRVLPPDIRILAWAPVEPSFSARFSCLERTYRYFFPRADLDIVTMDYAAQKYVGTHDFRNLCKMDVANGVINFQRTILSAQVQLVGQSPGEGRWQEPFQLCQFEVTGQAFLYHQVRCMMAILFLIGQGMEKPEIIDELLNIEKNPQKPQYSMAVEFPLVLYDCKFENVKWIYDQEAQEFNITHLQQLWANHAVKTHMLYSMLQGLDTVPVPCGIGPKMDGMTEWGNVKPSVIKQTSAFVEGVKMRTYKPLMDRPKCQGLESRIQHFVRRGRIEHPHLFHEEETKAKRDCNDTLEEENTNLETPTKRVCVDTEIKSII
stoichiometry N [1]: 2

B2: full-length human PUS3 Y71C mutant (enzyme, UniProt Q9BZE2 1-481, looked up)
chain: B1 chain with Y71C
stoichiometry N [2]: 2

B3: full-length human PUS3 D118A mutant (catalytic site) (enzyme, UniProt Q9BZE2 1-481, looked up)
chain: B1 chain with D118A
binding result [1]: binds
